T1: FXIII (Homo sapiens, UniProt P00488)
T1 sequence (P00488 1-732): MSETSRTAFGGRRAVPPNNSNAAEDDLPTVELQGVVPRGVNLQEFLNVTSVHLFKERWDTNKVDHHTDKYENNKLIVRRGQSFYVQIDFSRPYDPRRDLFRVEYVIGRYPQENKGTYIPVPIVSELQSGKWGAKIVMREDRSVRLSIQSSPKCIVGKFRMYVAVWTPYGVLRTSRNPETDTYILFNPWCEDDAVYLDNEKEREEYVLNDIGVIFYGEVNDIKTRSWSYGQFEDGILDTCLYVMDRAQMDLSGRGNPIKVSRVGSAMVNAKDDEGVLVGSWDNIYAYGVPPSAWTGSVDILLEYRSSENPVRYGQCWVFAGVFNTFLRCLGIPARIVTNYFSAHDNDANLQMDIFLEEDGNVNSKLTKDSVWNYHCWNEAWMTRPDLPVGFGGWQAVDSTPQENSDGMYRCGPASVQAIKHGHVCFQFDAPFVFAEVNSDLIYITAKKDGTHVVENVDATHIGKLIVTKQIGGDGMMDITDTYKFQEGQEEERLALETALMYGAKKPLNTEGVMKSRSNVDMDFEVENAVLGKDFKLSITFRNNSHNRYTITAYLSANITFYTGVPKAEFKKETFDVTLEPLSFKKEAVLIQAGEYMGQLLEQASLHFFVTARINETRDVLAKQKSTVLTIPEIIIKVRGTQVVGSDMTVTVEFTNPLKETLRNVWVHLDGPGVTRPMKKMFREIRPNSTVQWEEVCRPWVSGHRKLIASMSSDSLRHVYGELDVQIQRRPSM

T2: TG2 (Homo sapiens, UniProt P21980)
T2 sequence (P21980 1-687): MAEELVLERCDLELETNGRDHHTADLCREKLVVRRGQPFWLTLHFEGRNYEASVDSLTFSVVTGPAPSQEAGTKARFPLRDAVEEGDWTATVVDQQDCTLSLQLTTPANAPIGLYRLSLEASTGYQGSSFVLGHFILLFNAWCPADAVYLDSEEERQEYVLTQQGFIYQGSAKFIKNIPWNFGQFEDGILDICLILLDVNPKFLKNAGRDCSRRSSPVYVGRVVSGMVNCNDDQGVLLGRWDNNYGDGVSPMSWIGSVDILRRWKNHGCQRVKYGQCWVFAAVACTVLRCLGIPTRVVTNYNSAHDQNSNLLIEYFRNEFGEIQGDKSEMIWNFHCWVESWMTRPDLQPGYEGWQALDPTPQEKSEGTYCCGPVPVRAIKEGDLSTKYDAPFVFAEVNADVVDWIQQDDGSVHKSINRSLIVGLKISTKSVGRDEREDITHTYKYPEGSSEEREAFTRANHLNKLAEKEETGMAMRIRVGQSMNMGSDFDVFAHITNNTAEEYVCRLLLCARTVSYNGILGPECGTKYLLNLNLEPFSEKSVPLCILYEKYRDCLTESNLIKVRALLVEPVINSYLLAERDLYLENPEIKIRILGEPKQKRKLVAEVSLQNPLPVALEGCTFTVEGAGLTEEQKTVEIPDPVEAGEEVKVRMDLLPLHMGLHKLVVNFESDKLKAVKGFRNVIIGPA

B1: factor XIII (FXIII) (protein)
chain: SETSRTAFGGRRAVPPNNSNAAEDDLPTVELQGVVPRGVNLQEFLNVTSVHLFKERWDTNKVDHHTDKYENNKLIVRRGQSFYVQIDFSRPYDPRRDLFRVEYVIGRYPQENKGTYIPVPIVSELQSGKWGAKIVMREDRSVRLSIQSSPKCIVGKFRMYVAVWTPYGVLRTSRNPETDTYILFNPWCEDDAVYLDNEKEREEYVLNDIGVIFYGEVNDIKTRSWSYGQFEDGILDTCLYVMDRAQMDLSGRGNPIKVSRVGSAMVNAKDDEGVLVGSWDNIYAYGVPPSAWTGSVDILLEYRSSENPVRYGQCWVFAGVFNTFLRCLGIPARIVTNYFSAHDNDANLQMDIFLEEDGNVNSKLTKDSVWNYHCWNEAWMTRPDLPVGFGGWQAVDSTPQENSDGMYRCGPASVQAIKHGHVCFQFDAPFVFAEVNSDLIYITAKKDGTHVVENVDATHIGKLIVTKQIGGDGMMDITDTYKFQEGQEEERLALETALMYGAKKPLNTEGVMKSRSNVDMDFEVENAVLGKDFKLSITFRNNSHNRYTITAYLSANITFYTGVPKAEFKKETFDVTLEPLSFKKEAVLIQAGEYMGQLLEQASLHFFVTARINETRDVLAKQKSTVLTIPEIIIKVRGTQVVGSDMTVTVEFTNPLKETLRNVWVHLDGPGVTRPMKKMFREIRPNSTVQWEEVCRPWVSGHRKLIASMSSDSLRHVYGELDVQIQRRPSM

Key:
FXIII = target: T1, FXIII; assay: IGF-I incubated with FXIII and PEG functionalized with Q- or K-donor TG substrate peptide, IGF-I Western blot; assay type: biochemical; conditions: after 1 h; Q-donor vs K-donor PEG
Experimental: FIG. 1 (a) IGF-I Western blot after reaction for 60 minutes with FXIII and PEG derivatized with a glutamine (left lane) or lysine FXIII substrate (right lane). […] (b) 3D structure of IGF-I, with the putative FXIII site at the D domain shown relative to residues identified as important for receptor binding.
In the present experiments, IGF-I was incubated with FXIII and PEG functionalized with either a glutamine (Q)- or lysine (K)-donor TG substrate peptide.

TG2 [1] = target: T2, TG2; assay: Reaction of IGF-I with TG2, with or without the Gln-donor substrate glucagon; assay type: biochemical
Source text: FIG. 4 Reaction of IGF-I with glucagon catalysed by TG2. Lane 1: IGF-I control; 2: IGF-I+TG2; 3: TG2 control; 4: Gn control; 5: IGF-I+Gn; 6: TG2+Gn; 7: TG2+Gn+IGF-I. (Gn=glucagon)
In order to confirm this finding, we repeated this experiment using TG2 rather than FXIII, and the known TG2 Gln-donor substrate glucagon (Gn) as a probe (FIG. 4). […] The large band >75 kDa in lane 2 is apparently due to the formation of covalent complexes between IGF-I and TG2 itself; polymerization of IGF-I is also evident. Reaction of IGF-I with Gn (lane 7) also produced polymeric species. A band of MW consistent with (IGF-I)1Gn1 is indicated by an arrow.

TG2 [2] = target: T2, TG2; assay: TG2-catalysed crosslinking of IGF-I to recombinant extracellular domain of IGF1R, IGF-I Western blot; assay type: biochemical; conditions: TG2 0.70 μM, IGF-I 25 μg/mL, IGF1R 25 μg/mL, 1 hour, 1 mM CaCl2, pH 7.5
Experimental: TG2 (0.70 μM) was reacted with IGF-I (25 μg/mL) and/or recombinant extracellular domain of IGF1R (25 μg/mL; commercially available from R&D Systems) for 1 hour in the presence of 1 mM CaCl2, pH 7.5. At this point, the reaction was stopped by the addition of SDS-PAGE loading buffer. Samples were run through a 4%-12% SDS-PAGE gel, transferred to a PVDF membrane and probed for IGF-I using a goat anti-human IGF-I primary (1:5000 dilution) and HRP-conjugated rabbit anti-goat secondary (1:10,000), and visualised using chemiluminescence.
For it to be able to do this, both IGF-I and the IGF1R would have to be transglutaminase substrates. Because TG2 catalyses the formation of an isopeptide bond which is essentially as stable as a peptide backbone bond, the complex formed will not be broken apart under reducing SDS-PAGE conditions (whereas disulfide and non-covalent interactions will be broken).
So, in this assay we reacted IGF-I and the soluble recombinant extracellular portion of the receptor with TG2, and probed for where IGF-I ended up using a standard Western blot approach. The “smoking gun” for a reaction would be staining for IGF-I appearing at a molecular weight corresponding to […]. […]

[3] = target: insulin-like growth factor I (IGF-I), P05019
Chain of insulin-like growth factor I (IGF-I), P05019 (P05019 whole entry, looked up): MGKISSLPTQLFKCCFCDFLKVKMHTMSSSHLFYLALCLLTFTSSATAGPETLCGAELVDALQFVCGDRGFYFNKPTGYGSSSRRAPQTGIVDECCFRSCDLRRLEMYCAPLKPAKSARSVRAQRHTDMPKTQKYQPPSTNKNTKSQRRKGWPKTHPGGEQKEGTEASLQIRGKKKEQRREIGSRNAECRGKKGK

Molecule | incorporation of IGF-I into TG substrate-functionalized PEG (FXIII) | products of reaction of IGF-I alone with TG2 (TG2 [1]; lane 2, IGF-I+TG2) | products of reaction of IGF-I with glucagon catalysed by TG2 (TG2 [1]; lane 7, TG2+Gn+IGF-I) | crosslinking of IGF-I to IGF1R by TG2 (TG2 [2]) | Western blot for IGF-I after 1 h reaction with FXIII and PEG carrying a glutamine- or lysine-donor TG substrate peptide [3]
IGF-I: insulin-like growth factor I, tested as transglutaminase substrate | quantitatively incorporated into the Q-donor, but not the K-donor PEG | produced a series of bands corresponding to IGF-I oligomers | produced a wide range of molecular weight species | TG2 recognises sites on both the IGF1R and IGF-I, and is able to bind the two together | –
B1 | – | – | – | – | after 1 h IGF-I was quantitatively incorporated into the Q-donor, but not the K-donor PEG
